The values below come from article PMC10233381.

The target in this test is Myc-PUM1-R1147W (human) (UniProt Q14671). The test can be described thus: co-IP; HEK293T co-transfected with Myc-PUM1 (WT or mutant) and a GST-tagged protein (250 ng each), 48 h; IP with anti-Myc, immunoblot with anti-GST; quantified against Myc-PUM1-WT; called in vitro by the paper. On the technique in general: A western blot detects proteins with antibodies after separation by electrophoresis.
Chain of UniProt Q14671 (Q14671 other isoform, or with tags, fused parts or gaps R1147W): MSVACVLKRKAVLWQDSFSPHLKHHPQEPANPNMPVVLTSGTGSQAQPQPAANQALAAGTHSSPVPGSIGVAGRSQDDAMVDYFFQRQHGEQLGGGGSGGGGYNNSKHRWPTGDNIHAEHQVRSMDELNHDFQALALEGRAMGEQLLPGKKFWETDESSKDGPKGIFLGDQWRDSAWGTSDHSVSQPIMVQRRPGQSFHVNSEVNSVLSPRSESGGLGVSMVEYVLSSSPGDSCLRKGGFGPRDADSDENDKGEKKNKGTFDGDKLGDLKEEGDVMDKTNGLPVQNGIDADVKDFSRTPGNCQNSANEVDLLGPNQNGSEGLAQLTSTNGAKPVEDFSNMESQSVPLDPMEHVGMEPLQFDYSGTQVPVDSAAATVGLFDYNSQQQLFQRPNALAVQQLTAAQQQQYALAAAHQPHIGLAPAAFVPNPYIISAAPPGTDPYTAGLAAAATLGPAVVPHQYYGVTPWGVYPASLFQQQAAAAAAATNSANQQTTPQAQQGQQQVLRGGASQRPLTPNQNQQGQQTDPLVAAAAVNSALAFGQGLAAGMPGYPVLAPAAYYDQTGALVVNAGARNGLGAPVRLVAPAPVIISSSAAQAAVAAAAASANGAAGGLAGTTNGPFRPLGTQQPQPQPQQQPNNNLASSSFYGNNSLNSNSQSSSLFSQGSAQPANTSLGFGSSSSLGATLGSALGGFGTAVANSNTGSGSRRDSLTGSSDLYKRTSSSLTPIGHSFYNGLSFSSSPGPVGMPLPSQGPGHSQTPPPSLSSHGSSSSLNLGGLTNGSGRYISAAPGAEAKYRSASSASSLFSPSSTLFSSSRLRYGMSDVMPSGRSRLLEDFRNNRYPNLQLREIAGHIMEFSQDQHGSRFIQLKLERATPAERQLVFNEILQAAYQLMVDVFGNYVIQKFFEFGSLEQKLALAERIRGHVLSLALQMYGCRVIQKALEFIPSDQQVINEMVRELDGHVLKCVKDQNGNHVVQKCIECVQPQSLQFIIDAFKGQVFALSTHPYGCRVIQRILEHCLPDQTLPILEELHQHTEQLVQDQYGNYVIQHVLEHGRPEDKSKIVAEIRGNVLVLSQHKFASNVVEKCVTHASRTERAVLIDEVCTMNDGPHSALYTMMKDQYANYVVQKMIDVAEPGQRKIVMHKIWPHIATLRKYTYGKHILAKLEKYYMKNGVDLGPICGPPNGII

In turn, “GST-CNOT1 (from UniProt A5YKK6 1-2376) (natural protein)” returned a percent by which the interaction was diminished of 35%.
